# Data from the supplement of paper PMC10567573.
# B1: HESX1 (parent)
# chain: HVPNPPSGISFPSVVDHPMPEERA
# Variants of: B1
# Assay: protein stability index of a GFP-peptide fusion (GPS, HEK-293T) (PSI 1-6); higher = more stable
# Conditions: c terminus: a fixed tail appended
# 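Note: lentivirally expressed fusions sorted by FACS into six bins by GFP to DsRed ratio, PSI derived from sequencing read proportions per bin multiplied by bin number.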
row,Variant,protein stability index
1,HVPNPPSGISFPSVVDHPMPEHRA [E22H],2.29
2,HVPNPPSGISFPSVVDHPMPEGRA [E22G],2.08
3,HVPNPPSGISFPSVVDHPMPEDRA [E22D],2.76
4,HVPNPPSGISFPSVVDHPMPEARA [E22A],2.72
5,HVPNPPSGISFPSVVDHPMPETRA [E22T],2.33
6,HVPNPPSGISFPSVVDHPMPEQRA [E22Q],2.77
7,HVPNPPSGISFPSVVDHPMPESRA [E22S],2.3
8,HVPNPPSGISFPSVVDHPMPEMRA [E22M],2.15
9,HVPNPPSGISFPSVVDHPMPEIRA [E22I],2.75
10,HVPNPPSGISFPSVVDHPMPEFRA [E22F],1.9
11,HVPNPPSGISFPSVVDHPMPEYRA [E22Y],2.68
12,HVPNPPSGISFPSVVDHPMPELRA [E22L],1.94
13,HVPNPPSGISFPSVVDHPMPEPRA [E22P],2.17
14,HVPNPPSGISFPSVVDHPMPECRA [E22C],2.15
15,HVPNPPSGISFPSVVDHPMPENRA [E22N],2.02
16,HVPNPPSGISFPSVVDHPMPEKRA [E22K],1.83
17,HVPNPPSGISFPSVVDHPMPEWRA [E22W],2.37
18,HVPNPPSGISFPSVVDHPMPEVRA [E22V],2.16
19,HVPNPPSGISFPSVVDHPMPERRA [E22R],2.26
20,HVPNPPSGISFPSVVDHPMPEEFA [R23F],2.11
21,HVPNPPSGISFPSVVDHPMPEENA [R23N],2.73
22,HVPNPPSGISFPSVVDHPMPEEIA [R23I],2.58
23,HVPNPPSGISFPSVVDHPMPEEGA [R23G],3.19
24,HVPNPPSGISFPSVVDHPMPEEDA [R23D],3

row,Variant,protein stability index
1,HVPNPPSGISFPSVVDHPMPEEKA [R23K],2.77
2,HVPNPPSGISFPSVVDHPMPEEAA [R23A],2.53
3,HVPNPPSGISFPSVVDHPMPEEPA [R23P],2.76
4,HVPNPPSGISFPSVVDHPMPEETA [R23T],2.6
5,HVPNPPSGISFPSVVDHPMPEEYA [R23Y],2.34
6,HVPNPPSGISFPSVVDHPMPEELA [R23L],2.1
7,HVPNPPSGISFPSVVDHPMPEEVA [R23V],2.49
8,HVPNPPSGISFPSVVDHPMPEEQA [R23Q],2.21
9,HVPNPPSGISFPSVVDHPMPEEMA [R23M],2.38
10,HVPNPPSGISFPSVVDHPMPEECA [R23C],2.56
11,HVPNPPSGISFPSVVDHPMPEEHA [R23H],2.99
12,HVPNPPSGISFPSVVDHPMPEEEA [R23E],2.76
13,HVPNPPSGISFPSVVDHPMPEESA [R23S],2.36
14,HVPNPPSGISFPSVVDHPMPEEWA [R23W],2.37
15,HVPNPPSGISFPSVVDHPRPEERA [M19R],2.83
16,HVPNPPSGISFPSVVDHPGPEERA [M19G],2.44
17,HVPNPPSGISFPSVVDHPTPEERA [M19T],2.59
18,HVPNPPSGISFPSVVDHPEPEERA [M19E],3.69
19,HVPNPPSGISFPSVVDHPVPEERA [M19V],2.44
20,HVPNPPSGISFPSVVDHPHPEERA [M19H],3.03
21,HVPNPPSGISFPSVVDHPSPEERA [M19S],3.18
22,HVPNPPSGISFPSVVDHPCPEERA [M19C],2.37
23,HVPNPPSGISFPSVVDHPAPEERA [M19A],2.99
24,HVPNPPSGISFPSVVDHPKPEERA [M19K],3.31

row,Variant,protein stability index
1,HVPNPPSGISFPSVVDHPLPEERA [M19L],2.39
2,HVPNPPSGISFPSVVDHPNPEERA [M19N],2.97
3,HVPNPPSGISFPSVVDHPYPEERA [M19Y],2.27
4,HVPNPPSGISFPSVVDHPFPEERA [M19F],2.65
5,HVPNPPSGISFPSVVDHPIPEERA [M19I],2.59
6,HVPNPPSGISFPSVVDHPDPEERA [M19D],2.94
7,HVPNPPSGISFPSVVDHPWPEERA [M19W],2.29
8,HVPNPPSGISFPSVVDHPQPEERA [M19Q],3.17
9,HVPNPPSGISFPSVVDHPMGEERA [P20G],2.61
10,HVPNPPSGISFPSVVDHPMEEERA [P20E],2.48
11,HVPNPPSGISFPSVVDHPMVEERA [P20V],2.55
12,HVPNPPSGISFPSVVDHPMTEERA [P20T],2.91
13,HVPNPPSGISFPSVVDHPMCEERA [P20C],2.45
14,HVPNPPSGISFPSVVDHPMREERA [P20R],2.88
15,HVPNPPSGISFPSVVDHPMWEERA [P20W],2.1
16,HVPNPPSGISFPSVVDHPMMEERA [P20M],2.79
17,HVPNPPSGISFPSVVDHPMFEERA [P20F],2.21
18,HVPNPPSGISFPSVVDHPMHEERA [P20H],2.65
19,HVPNPPSGISFPSVVDHPMKEERA [P20K],2.54
20,HVPNPPSGISFPSVVDHPMNEERA [P20N],3.28
21,HVPNPPSGISFPSVVDHPMSEERA [P20S],2.82
22,HVPNPPSGISFPSVVDHPMLEERA [P20L],2.48
23,HVPNPPSGISFPSVVDHPMDEERA [P20D],2.98
24,HVPNPPSGISFPSVVDHPMIEERA [P20I],2.49

row,Variant,protein stability index
1,HVPNPPSGISFPSVVDHPMQEERA [P20Q],2.78
2,HVPNPPSGISFPSVVDHPMYEERA [P20Y],2.24
3,HVPNPPSGISFPSVVDHPMAEERA [P20A],2.74
4,HVPNPPSGISFPSVVDHPMPTERA [E21T],2.52
5,HVPNPPSGISFPSVVDHPMPAERA [E21A],2.49
6,HVPNPPSGISFPSVVDHPMPLERA [E21L],1.97
7,HVPNPPSGISFPSVVDHPMPSERA [E21S],2.56
8,HVPNPPSGISFPSVVDHPMPVERA [E21V],2.48
9,HVPNPPSGISFPSVVDHPMPIERA [E21I],1.95
10,HVPNPPSGISFPSVVDHPMPNERA [E21N],2.37
11,HVPNPPSGISFPSVVDHPMPWERA [E21W],2
12,HVPNPPSGISFPSVVDHPMPKERA [E21K],1.89
13,HVPNPPSGISFPSVVDHPMPGERA [E21G],2.08
14,HVPNPPSGISFPSVVDHPMPPERA [E21P],2.06
15,HVPNPPSGISFPSVVDHPMPDERA [E21D],2.85
16,HVPNPPSGISFPSVVDHPMPCERA [E21C],2.71
17,HVPNPPSGISFPSVVDHPMPYERA [E21Y],2.43
18,HVPNPPSGISFPSVVDHPMPMERA [E21M],1.86
19,HVPNPPSGISFPSVVDHPMPFERA [E21F],1.96
20,HVPNPPSGISFPSVVDHPMPQERA [E21Q],2.33
21,HVPNPPSGISFPSVVDHPMPRERA [E21R],2.52
22,HVPNPPSGISFPSVVDHPMPHERA [E21H],2.45
